# According to paper PMC10085699:
# Like-named read-outs stand apart in the source and are kept apart here.
# B1: 5'-oh RNA:DNA hybrid (pRMS678/pRMS690) (DNA:RNA)
# RNA: UUGUCUUCUCAUAAAUUUAAUCCCCGUACGCUUAUACUCCUUUAACUACCCAGUCUUCCCG
# DNA: CGGGAAGACTGGGTAGTTAA
# B2: 3'-oh RNA:DNA hybrid (pRMS678/pRMS689) (DNA:RNA)
# RNA: UUGUCUUCUCAUAAAUUUAAUCCCCGUACGCUUAUACUCCUUUAACUACCCAGUCUUCCCG
# DNA: TTAAATTTATGAGAAGACAA
# B3: blunt RNA:DNA hybrid (pRMS678/pRMS743) (DNA:RNA)
# RNA: UUGUCUUCUCAUAAAUUUAAUCCCCGUACGCUUAUACUCCUUUAACUACCCAGUCUUCCCG
# DNA: CGGGAAGACTGGGTAGTTAAAGGAGTATAAGCGTACGGGGATTAAATTTATGAGAAGACAA
# B4: 5'-oh R-loop (pRMS217/219/222) (mixed)
# DNA 1: GACGCTGCCGAATTCTACCAGTGCCTTGCTAGGACATCTTTGCCCACCTGCAGGTTCACCC
# DNA 2: GGGTGAACCTGCAGGTGGGCGGCTGCTCATCGTAGGTTAGTTGGTAGAATTCGGCAGCGTC
# RNA: UAAGAGCAAGAUGUUCUAUAAAAGAUGUCCUAGCAAGGCAC
# B5: 3'-oh R-loop (pRMS217/219/626) (mixed)
# DNA 1: GACGCTGCCGAATTCTACCAGTGCCTTGCTAGGACATCTTTGCCCACCTGCAGGTTCACCC
# DNA 2: GGGTGAACCTGCAGGTGGGCGGCTGCTCATCGTAGGTTAGTTGGTAGAATTCGGCAGCGTC
# RNA: AAAGAUGUCCUAGCAAGGCACUAAGUCCUAGAUGUUCUAUA
# B6: R-loop, no overhang (pRMS217/219/223) (mixed)
# DNA 1: GACGCTGCCGAATTCTACCAGTGCCTTGCTAGGACATCTTTGCCCACCTGCAGGTTCACCC
# DNA 2: GGGTGAACCTGCAGGTGGGCGGCTGCTCATCGTAGGTTAGTTGGTAGAATTCGGCAGCGTC
# RNA: AAAGAUGUCCUAGCAAGGCAC
# Assays:
# SETX-HD-WT [1] = target: T1, SETX-HD-WT (Homo sapiens, UniProt Q7Z333 1674-2677); assay: BLI
# T1 sequence: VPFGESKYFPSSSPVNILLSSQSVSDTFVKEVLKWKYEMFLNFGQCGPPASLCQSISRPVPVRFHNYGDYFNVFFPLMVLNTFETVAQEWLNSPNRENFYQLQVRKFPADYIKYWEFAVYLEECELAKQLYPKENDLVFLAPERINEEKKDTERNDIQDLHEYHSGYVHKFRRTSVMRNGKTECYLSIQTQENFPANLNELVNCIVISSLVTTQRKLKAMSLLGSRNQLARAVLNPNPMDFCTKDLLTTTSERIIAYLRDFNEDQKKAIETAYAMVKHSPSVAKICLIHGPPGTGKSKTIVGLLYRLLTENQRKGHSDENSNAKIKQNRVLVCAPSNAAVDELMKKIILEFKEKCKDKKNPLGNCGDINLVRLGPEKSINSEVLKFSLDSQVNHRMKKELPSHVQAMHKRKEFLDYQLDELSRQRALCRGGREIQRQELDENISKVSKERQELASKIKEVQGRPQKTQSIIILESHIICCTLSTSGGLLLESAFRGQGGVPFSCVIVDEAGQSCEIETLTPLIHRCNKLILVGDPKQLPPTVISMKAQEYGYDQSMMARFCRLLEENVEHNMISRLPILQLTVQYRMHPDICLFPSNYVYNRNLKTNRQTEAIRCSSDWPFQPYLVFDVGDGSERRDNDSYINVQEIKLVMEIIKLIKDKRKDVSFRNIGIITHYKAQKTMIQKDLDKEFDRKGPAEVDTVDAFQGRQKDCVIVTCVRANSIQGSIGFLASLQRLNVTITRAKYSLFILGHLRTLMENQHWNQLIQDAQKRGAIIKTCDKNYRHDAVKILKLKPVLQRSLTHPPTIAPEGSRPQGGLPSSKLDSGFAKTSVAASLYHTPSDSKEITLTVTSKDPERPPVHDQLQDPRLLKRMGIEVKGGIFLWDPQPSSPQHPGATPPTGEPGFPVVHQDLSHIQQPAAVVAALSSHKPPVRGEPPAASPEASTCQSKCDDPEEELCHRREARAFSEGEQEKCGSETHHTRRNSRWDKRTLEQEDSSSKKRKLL
# Sen1-HD [2] = target: T2, Sen1-HD (UniProt Q00416 1095-1904); assay: BLI
# T2 sequence: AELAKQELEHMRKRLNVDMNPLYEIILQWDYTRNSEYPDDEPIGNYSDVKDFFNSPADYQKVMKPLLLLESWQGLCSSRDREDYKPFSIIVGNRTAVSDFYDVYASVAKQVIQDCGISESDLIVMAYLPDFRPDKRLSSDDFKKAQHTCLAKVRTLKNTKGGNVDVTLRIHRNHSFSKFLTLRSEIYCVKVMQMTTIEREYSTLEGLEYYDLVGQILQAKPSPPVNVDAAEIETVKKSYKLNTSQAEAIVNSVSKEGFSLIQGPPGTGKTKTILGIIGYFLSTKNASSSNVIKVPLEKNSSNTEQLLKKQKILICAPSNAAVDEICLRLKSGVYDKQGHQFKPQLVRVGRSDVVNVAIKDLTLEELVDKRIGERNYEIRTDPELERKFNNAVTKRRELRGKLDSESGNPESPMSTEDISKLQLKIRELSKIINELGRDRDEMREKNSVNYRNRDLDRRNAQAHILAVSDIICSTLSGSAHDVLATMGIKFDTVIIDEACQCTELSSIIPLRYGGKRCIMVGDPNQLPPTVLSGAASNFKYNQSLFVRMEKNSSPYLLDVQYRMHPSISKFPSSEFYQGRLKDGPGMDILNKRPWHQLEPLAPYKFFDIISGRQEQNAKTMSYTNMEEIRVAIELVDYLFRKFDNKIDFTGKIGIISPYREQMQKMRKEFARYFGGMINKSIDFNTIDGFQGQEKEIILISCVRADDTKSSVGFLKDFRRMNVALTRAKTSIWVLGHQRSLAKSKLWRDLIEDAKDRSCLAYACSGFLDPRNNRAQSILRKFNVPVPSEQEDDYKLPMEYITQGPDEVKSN
# Sen1-HD [3] = target: T2, Sen1-HD; assay: BLI; remark: listed apart in the source
# SETX-HD-V1884T = target: T3, SETX-HD-V1884T (Homo sapiens, UniProt Q7Z333 1674-2677, V1884T); assay: BLI
# T3 sequence: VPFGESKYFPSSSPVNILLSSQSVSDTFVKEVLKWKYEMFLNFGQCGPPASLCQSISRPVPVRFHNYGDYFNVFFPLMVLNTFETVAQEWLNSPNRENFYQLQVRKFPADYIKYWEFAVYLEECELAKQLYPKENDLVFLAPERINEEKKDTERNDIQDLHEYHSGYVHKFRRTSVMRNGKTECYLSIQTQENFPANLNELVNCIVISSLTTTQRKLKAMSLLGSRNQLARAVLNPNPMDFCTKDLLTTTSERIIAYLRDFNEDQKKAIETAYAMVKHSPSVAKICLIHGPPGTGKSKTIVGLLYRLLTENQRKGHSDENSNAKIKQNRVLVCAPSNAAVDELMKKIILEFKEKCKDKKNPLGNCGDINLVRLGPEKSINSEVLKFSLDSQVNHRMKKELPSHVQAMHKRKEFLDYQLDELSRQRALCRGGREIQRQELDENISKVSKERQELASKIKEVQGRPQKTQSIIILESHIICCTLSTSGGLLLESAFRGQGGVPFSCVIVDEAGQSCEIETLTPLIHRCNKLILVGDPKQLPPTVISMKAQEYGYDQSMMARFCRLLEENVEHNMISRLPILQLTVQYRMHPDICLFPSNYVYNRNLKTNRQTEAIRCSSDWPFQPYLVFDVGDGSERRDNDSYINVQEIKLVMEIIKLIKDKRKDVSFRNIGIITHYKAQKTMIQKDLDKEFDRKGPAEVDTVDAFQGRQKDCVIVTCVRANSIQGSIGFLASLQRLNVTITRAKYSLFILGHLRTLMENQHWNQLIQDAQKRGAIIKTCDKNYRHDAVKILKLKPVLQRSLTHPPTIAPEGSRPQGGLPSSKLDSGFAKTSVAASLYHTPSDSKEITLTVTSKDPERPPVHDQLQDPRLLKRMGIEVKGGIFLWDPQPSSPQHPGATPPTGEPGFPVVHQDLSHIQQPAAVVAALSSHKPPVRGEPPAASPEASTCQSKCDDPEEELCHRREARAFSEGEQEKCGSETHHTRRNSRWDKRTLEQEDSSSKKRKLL
# SETX-HD-WT [4] = target: T1, SETX-HD-WT; assay: BLI; remark: listed apart in the source
# SETX-HD-WT [5] = target: T1, SETX-HD-WT; assay: EMSA
# SETX-HD-WT [6] = target: T1, SETX-HD-WT; assay: EMSA; remark: listed apart in the source
# SETX-HD-WT [7] = target: T1, SETX-HD-WT; assay: EMSA; remark: listed apart in the source
# SETX-HD-WT [8] = target: T1, SETX-HD-WT; assay: EMSA; remark: listed apart in the source
binder,measurement,setting,value
TTGTCTTCTCATAAATTTAATCCCCGTACGCTTATACTCCT (ssDNA) [ssDNA pRMS739 (41 nt)],Kd,SETX-HD-WT [1],2.8 nM
same,Kd,Sen1-HD [2],3.4 nM
UUGUCUUCUCAUAAAUUUAAUCCCCGUACGCUUAUACUCCU (ssRNA) [ssRNA pRMS740 (41 nt)],Kd,Sen1-HD [3],3.7 nM
same,binding result,SETX-HD-V1884T,binds
same,Kd,SETX-HD-WT [4],4.6 nM
B1,binding result,SETX-HD-WT [5],binds
B2,binding result,SETX-HD-WT [6],binds
B3,binding result,SETX-HD-WT [7],no binding
B4,binding result,SETX-HD-WT [8],binds
B5,binding result,SETX-HD-WT [8],binds
B6,binding result,SETX-HD-WT [8],binds
